This note sets out measurements from article PMC2779590.

This test has as its target stable 100 kDa N-terminal fragment of CagA (Helicobacter pylori (strain not stated)) (UniProt P55980). The test can be described thus: SPR. In general terms: In SPR one partner is held on a chip, and binding of the other changes the refractive index at the surface.

stable 100 kDa N-terminal fragment of CagA (Helicobacter pylori (strain not stated)), sequence (P55980 1-885 limits assumed): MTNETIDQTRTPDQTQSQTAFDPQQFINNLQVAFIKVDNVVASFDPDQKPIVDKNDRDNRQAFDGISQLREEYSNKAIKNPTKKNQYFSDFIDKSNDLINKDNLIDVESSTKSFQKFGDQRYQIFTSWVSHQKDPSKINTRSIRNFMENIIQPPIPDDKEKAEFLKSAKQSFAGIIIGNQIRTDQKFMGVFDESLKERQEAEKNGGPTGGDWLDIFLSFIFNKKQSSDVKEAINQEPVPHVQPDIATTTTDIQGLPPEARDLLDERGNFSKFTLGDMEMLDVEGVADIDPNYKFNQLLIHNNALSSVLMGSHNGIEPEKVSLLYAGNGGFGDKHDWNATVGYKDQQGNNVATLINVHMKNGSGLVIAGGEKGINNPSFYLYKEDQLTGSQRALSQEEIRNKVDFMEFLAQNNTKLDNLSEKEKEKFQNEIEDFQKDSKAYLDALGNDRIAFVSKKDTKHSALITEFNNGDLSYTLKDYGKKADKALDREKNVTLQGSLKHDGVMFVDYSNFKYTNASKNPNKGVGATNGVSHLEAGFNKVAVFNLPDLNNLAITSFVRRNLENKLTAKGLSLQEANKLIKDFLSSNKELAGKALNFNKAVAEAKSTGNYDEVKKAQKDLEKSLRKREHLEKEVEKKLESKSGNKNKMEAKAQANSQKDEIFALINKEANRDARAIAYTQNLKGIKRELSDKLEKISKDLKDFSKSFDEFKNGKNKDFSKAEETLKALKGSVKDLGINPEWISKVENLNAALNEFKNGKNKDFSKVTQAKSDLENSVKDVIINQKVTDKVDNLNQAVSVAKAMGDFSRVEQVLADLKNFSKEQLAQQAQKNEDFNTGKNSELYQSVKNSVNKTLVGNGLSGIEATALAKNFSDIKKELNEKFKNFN

In the case of “purified human αVβ3 integrin (from placenta) (from UniProt P05106 27-788) (complex)”, the Kd stood at 33.4 nM.
Next, “purified human α5β1 integrin (from placenta) (from UniProt P05556 21-798) (complex)”: 0.153 nM.

For orientation: Kd means the free concentration of one partner at which half of the binding sites on the other are occupied at equilibrium, for simple one-to-one binding. A lower Kd goes with tighter binding.
